Data reported in US20170158768A1 (PENN STATE RESEARCH FOUNDATION, published 2017).

Target: T1, CD11b (mouse, UniProt P05555 17-1153)
T1 construct: Endogenous protein immunoprecipitated from Raw264.7 macrophage extracts with monoclonal CD11b antibody; Its integrin beta partner is not mentioned
Experiment: co-immunoprecipitation with monoclonal CD11b antibody, Western blot

T1 sequence (P05555 17-1153 limits assumed): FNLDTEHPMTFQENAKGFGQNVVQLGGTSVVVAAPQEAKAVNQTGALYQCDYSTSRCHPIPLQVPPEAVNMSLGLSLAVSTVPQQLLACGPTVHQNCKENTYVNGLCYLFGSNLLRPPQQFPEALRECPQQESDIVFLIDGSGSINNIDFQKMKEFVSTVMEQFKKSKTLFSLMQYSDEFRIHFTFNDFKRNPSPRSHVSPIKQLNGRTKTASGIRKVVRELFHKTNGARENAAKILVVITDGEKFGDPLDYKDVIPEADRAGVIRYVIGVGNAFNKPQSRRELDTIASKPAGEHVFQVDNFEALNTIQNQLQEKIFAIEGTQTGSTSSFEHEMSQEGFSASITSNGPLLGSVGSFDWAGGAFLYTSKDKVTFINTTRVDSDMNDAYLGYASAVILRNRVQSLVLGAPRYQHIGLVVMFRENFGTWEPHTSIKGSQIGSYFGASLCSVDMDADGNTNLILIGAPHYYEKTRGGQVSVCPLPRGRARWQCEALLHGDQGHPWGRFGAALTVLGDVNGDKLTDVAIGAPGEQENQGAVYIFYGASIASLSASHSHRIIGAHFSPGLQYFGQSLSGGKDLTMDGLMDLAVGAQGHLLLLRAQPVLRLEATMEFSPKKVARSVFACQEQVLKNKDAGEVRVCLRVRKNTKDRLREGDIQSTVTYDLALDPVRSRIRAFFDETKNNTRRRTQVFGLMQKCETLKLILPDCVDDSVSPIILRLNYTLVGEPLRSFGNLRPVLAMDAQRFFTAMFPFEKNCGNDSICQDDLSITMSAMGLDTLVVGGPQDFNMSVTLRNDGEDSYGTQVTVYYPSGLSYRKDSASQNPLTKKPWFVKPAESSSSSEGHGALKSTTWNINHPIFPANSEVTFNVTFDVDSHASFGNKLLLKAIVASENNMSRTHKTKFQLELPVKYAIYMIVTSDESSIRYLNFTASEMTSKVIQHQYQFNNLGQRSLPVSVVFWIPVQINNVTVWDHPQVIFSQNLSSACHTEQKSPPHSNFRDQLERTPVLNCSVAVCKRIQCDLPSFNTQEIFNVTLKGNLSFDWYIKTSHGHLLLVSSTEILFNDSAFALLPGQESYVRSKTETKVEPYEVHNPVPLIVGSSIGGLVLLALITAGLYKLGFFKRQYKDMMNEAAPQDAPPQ

binding result	Binder
no binding	TLR-2 (receptor, mouse, UniProt Q9QUN7 25-784, looked up) QESLSCDASGVCDGRSRSFTSIPSGLTAAMKSLDLSFNKITYIGHGDLRACANLQVLILKSSRINTIEGDAFYSLGSLEHLDLSDNHLSSLSSSWFGPLSSLKYLNLMGNPYQTLGVTSLFPNLTNLQTLRIGNVETFSEIRRIDFAGLTSLNELEIKALSLRNYQSQSLKSIRDIHHLTLHLSESAFLLEIFADILSSVRYLELRDTNLARFQFSPLPVDEVSSPMKKLAFRGSVLTDESFNELLKLLRYILELSEVEFDDCTLNGLGDFNPSESDVVSELGKVETVTIRRLHIPQFYLFYDLSTVYSLLEKVKRITVENSKVFLVPCSFSQHLKSLEFLDLSENLMVEEYLKNSACKGAWPSLQTLVLSQNHLRSMQKTGEILLTLKNLTSLDISRNTFHPMPDSCQWPEKMRFLNLSSTGIRVVKTCIPQTLEVLDVSNNNLDSFSLFLPRLQELYISRNKLKTLPDASLFPVLLVMKIRENAVSTFSKDQLGSFPKLETLEAGDNHFVCSCELLSFTMETPALAQILVDWPDSYLCDSPPRLHGHRLQDARPSVLECHQAALVSGVCCALLLLILLVGALCHHFHGLWYLRMMWAWLQAKRKPKKAPCRDVCYDAFVSYSEQDSHWVENLMVQQLENSDPPFKLCLHKRDFVPGKWIIDNIIDSIEKSHKTVFVLSENFVRSEWCKYELDFSHFRLFDENNDAAILVLLEPIERKAIPQRFCKLRKIMNTKTYLEWPLDEGQQEVFWVNLRTAIKS
no binding	CD36 (receptor, mouse, UniProt Q08857 1-472, looked up) MGCDRNCGLIAGAVIGAVLAVFGGILMPVGDMLIEKTIKREVVLEEGTTAFKNWVKTGTTVYRQFWIFDVQNPDDVAKNSSKIKVKQRGPYTYRVRYLAKENITQDPEDHTVSFVQPNGAIFEPSLSVGTEDDNFTVLNLAVAAAPHIYQNSFVQVVLNSLIKKSKSSMFQTRSLKELLWGYKDPFLSLVPYPISTTVGVFYPYNDTVDGVYKVFNGKDNISKVAIIESYKGKRNLSYWPSYCDMINGTDAASFPPFVEKSRTLRFFSSDICRSIYAVFGSEIDLKGIPVYRFVLPANAFASPLQNPDNHCFCTEKVISNNCTSYGVLDIGKCKEGKPVYISLPHFLHASPDVSEPIEGLHPNEDEHRTYLDVEPITGFTLQFAKRLQVNILVKPARKIEALKNLKRPYIVPILWLNETGTIGDEKAEMFKTQVTGKIKLLGMVEMALLGIGVVMFVAFMISYCACKSKNGK
